# Results reported in patent US20180334496A1 (KODIAK SCIENCES, published 2018).
# Several values for one entry are separate records, joined by “and”; a condition that tells them apart may be missing. Identical values can stand only once. Like-named read-outs stand apart in the source and are kept apart here.
# Assays:
# [1] = molecular target: T1, human complement factor D purified from serum (human, UniProt P00746 26-253); test: SPR MX96
# T1 construct: serum-purified (CompTech); also called hCFD-Comptech; CFD
# [2] = molecular target: T2, recombinant cynomolgus CFD, His-tagged (cynomolgus); test: SPR MX96
# T2 construct: also called rcyCFD-His; recombinant Cyno-CFD
# [3] = molecular target: T3, recombinant human CFD, His-tagged (human, UniProt P00746 26-253); test: SPR MX96
# T3 construct: also called rhCFD-His
# [4] = molecular target: T1, human complement factor D purified from …
# [5] = molecular target: T1, human complement factor D purified from …; test: cell-based or functional assay
# [6] = molecular target: human Complement Factor D (serum purified) (human, UniProt P00746 26-253); test: cell-based or functional assay
# [7] = molecular target: T4, recombinant human CFD mutant 1 (R157A, R207A), His-tagged (human, UniProt P00746 26-253); test: ELISA
# T4 construct: positions are linear positions in the mature protein; also called rhCFD-mut1-His; Mut1
# [8] = molecular target: T5, serum purified human Complement Factor D (human, UniProt P00746 26-253); test: SPR Biacore, antibody on protein A chip, single cycle kinetics, 25 C
# T5 construct: Serum purified protein flowed over the captured antibodies; also called CFD; human CFD
# [9] = molecular target: T5, serum purified human Complement Factor D; test: SPR Biacore, antibody on protein A chip, single cycle kinetics, 37 C
# [10] = molecular target: T5, serum purified human Complement Factor D; test: SPR Biacore, antibody on protein A chip, single cycle kinetics, 25 C; remark: listed apart in the source
# [11] = molecular target: T5, serum purified human Complement Factor D; test: SPR Biacore, antibody on protein A chip, single cycle kinetics, 37 C; remark: listed apart in the source
# [12] = molecular target: T5, serum purified human Complement Factor D; test: SPR Biacore, 25 C
# [13] = molecular target: T5, serum purified human Complement Factor D; test: SPR Biacore, 37 C
# For CFD Enzymatic activity (% of Neg Ctrl) in this document: test concentration or dose not given here.
# T5 sequence (P00746 26-253): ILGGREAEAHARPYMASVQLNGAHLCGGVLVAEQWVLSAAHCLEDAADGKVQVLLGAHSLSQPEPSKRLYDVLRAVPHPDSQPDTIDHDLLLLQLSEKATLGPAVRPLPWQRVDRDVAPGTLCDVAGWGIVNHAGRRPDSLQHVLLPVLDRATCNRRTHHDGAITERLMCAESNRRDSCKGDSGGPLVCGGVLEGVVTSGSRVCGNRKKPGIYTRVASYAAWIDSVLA
# T3 sequence (P00746 26-253 limits assumed): as the sequence (P00746 26-253) above
# human Complement Factor D (serum purified), sequence (P00746 26-253): as above
# T1 sequence (P00746 26-253): as above
# T4 sequence (P00746 26-253 R182A/R232A limits assumed): as the sequence (P00746 26-253) above, with R157A, R207A counted along it
binder,measurement,setting,value
"KCD119 (antibody, V domains shown, chimeric; also called Mouse KCD119) VH: EVQLQQSGPELVKPGASVKISCKASGYTFTDYYTNWMRQRHGESLEWIGDINPNTGDTSYNQKFRVKATLTVDKSSGTAYMGLRSLTSEDSAVYYCTREGPSFAYWGQGTLVTVSA VL: DVLMTQTPLSLPVSLGDQASISCRSSQTIVHSNGDTYLEWYLQKPGQSPNLLIYKVSNRFSGVPDRFSGSGSGTDFTLKISRVEAEDLGVYYCFQGSHVPPTFGGGTTLEIK",Kd,[1],370 pM and 860 pM
same,Kd,[2],700 pM and 1100 pM
same,Kd,[3],280 pM and 560 pM
same,Kd,[4],35.8 pM
same,CFD Enzymatic activity (% of Neg Ctrl),[5],15.7 % of Neg Ctrl
"Mouse KCD119 (antibody, V domains shown) VH: EVQLQQSGPELVKPGASVKISCKASGYTFTDYYTNWMRQRHGESLEWIGDINPNTGDTSYNQKFRVKATLTVDKSSGTAYMGLRSLTSEDSAVYYCTREGPSFAYWGQGTLVTVSA VL: DVLMTQTPLSLPVSLGDQASISCRSSQTIVHSNGDTYLEWYLQKPGQSPNLLIYKVSNRFSGVPDRFSGSGSGTDFTLKISRVEAEDLGVYYCFQGSHVPPTFGGGTTLEIK","% no ab control, CFD enzymatic activity on Z-L-Lys-SBzl",[6],15.3 % no ab control
same,"Vmax (OD/sec), CFD enzymatic activity on Z-L-Lys-SBzl",[6],0.318 OD/sec
"KCD124 (antibody, V domains shown, chimeric) VH: EVQLQQSGPELVKPGASVKISCKASGYTFTDHYMNWVKQSHGKSLEWIGDINPNNGGTSYNQKFKGKATLTVDKSSSTAYMELRSLTSGDSAVYYCTREGASFAFWGQGTLVTVSA VL: DVLMTQTPLSLPVSLGDQASISCRSSQSIVHSNGDTYLEWYLQKPGQSPKLLIYKVSNRFSGVPDRFSGSGSGTDFTLKISRVEAEDLGVYYCFQGSHVPLTFGAGTKLELK",Mut1 Binding (% wt),[7],-0.643 % wt
same,Kd,[1],4300 pM
same,Kd,[2],5200 pM
same,Kd,[3],3300 pM
same,Kd,[4],780 pM
same,CFD Enzymatic activity (% of Neg Ctrl),[5],19.7 % of Neg Ctrl
"KCD119 TAF (antibody, V domains shown) VH: EVQLVESGGGLVQPGGSLRLSCAASGYTFTDYYMNWVRQAPGKGLEWIGDINPNTGDTSYNADFKRRFTFSLDTSKSTAYLQMNSLRAEDTAVYYCTREGPSFAYWGQGTLVTVSS VL: DIQLTQSPSSLSASVGDRVTITCRSSQTIVHSNGDTYLEWYQQKPGKAPNLLIYKVSNRFSGVPSRFSGSGSGTDFTLTISSLQPEDFATYYCFQGSHVPPTFGQGTKVEIK","% no ab control, CFD enzymatic activity on Z-L-Lys-SBzl",[6],19.6 % no ab control
same,"Vmax (OD/sec), CFD enzymatic activity on Z-L-Lys-SBzl",[6],0.408 OD/sec
"31S34I54V59D84S/54R101V (SEQ ID NO: 184) (antibody, V domains shown) VH: EVQLVESGGGLVQPGGSLRLSCAASGYTFTSYYINWVRQAPGKGLEWIGDINPVTGDTDYNADFKRRFTFSLDTSKSTAYLQMSSLRAEDTAVYYCTREGPSFAYWGQGTLVTVSS VL: DIQLTQSPSSLSASVGDRVTITCRSSQTIVHSNGDTYLEWYQQKPGKAPNLLIRKVSNRFSGVPSRFSGSGSGTDFTLTISSLQPEDFATYYCFQGSHVPVTFGQGTKVEIKR","% no ab control, CFD enzymatic activity on Z-L-Lys-SBzl",[6],28.6 % no ab control
same,"Vmax (OD/sec), CFD enzymatic activity on Z-L-Lys-SBzl",[6],0.596 OD/sec
"34I54V59D84S/54R101V (SEQ ID NO: 184) (antibody, V domains shown) VH: EVQLVESGGGLVQPGGSLRLSCAASGYTFTDYYINWVRQAPGKGLEWIGDINPVTGDTDYNADFKRRFTFSLDTSKSTAYLQMSSLRAEDTAVYYCTREGPSFAYWGQGTLVTVSS VL: DIQLTQSPSSLSASVGDRVTITCRSSQTIVHSNGDTYLEWYQQKPGKAPNLLIRKVSNRFSGVPSRFSGSGSGTDFTLTISSLQPEDFATYYCFQGSHVPVTFGQGTKVEIKR","% no ab control, CFD enzymatic activity on Z-L-Lys-SBzl",[6],23.3 % no ab control
same,"Vmax (OD/sec), CFD enzymatic activity on Z-L-Lys-SBzl",[6],0.486 OD/sec
"34I54I59D84S / 54G101V (antibody, V domains shown, also called 34I54I59D845 / 54G101V) VH: EVQLVESGGGLVQPGGSLRLSCAASGYTFTDYYINWVRQAPGKGLEWIGDINPITGDTDYNADFKRRFTFSLDTSKSTAYLQMSSLRAEDTAVYYCTREGPSFAYWGQGTLVTVSS VL: DIQLTQSPSSLSASVGDRVTITCRSSQTIVHSNGDTYLEWYQQKPGKAPNLLIGKVSNRFSGVPSRFSGSGSGTDFTLTISSLQPEDFATYYCFQGSHVPVTFGQGTKVEIK",Kd,[8],6.83 pM
same,koff,[8],5.18e-05 s⁻¹
same,kon,[8],7.59e+06 M⁻¹ s⁻¹
same,Kd,[9],7.74 pM
same,koff,[9],0.000112 s⁻¹
same,kon,[9],1.45e+07 M⁻¹ s⁻¹
same,Kd,[10],6.83 pM
same,koff,[10],5.18e-05 s⁻¹
same,kon,[10],7.59e+06 M⁻¹ s⁻¹
same,Kd,[11],7.74 pM
same,koff,[11],0.000112 s⁻¹
same,kon,[11],1.45e+07 M⁻¹ s⁻¹
"31S34I54I59D84S / 54R101V (antibody, V domains shown, KCD119 TAF variant; also called 3I534I54I59D84S / 54R101V) VH: EVQLVESGGGLVQPGGSLRLSCAASGYTFTSYYINWVRQAPGKGLEWIGDINPITGDTDYNADFKRRFTFSLDTSKSTAYLQMSSLRAEDTAVYYCTREGPSFAYWGQGTLVTVSS VL: DIQLTQSPSSLSASVGDRVTITCRSSQTIVHSNGDTYLEWYQQKPGKAPNLLIRKVSNRFSGVPSRFSGSGSGTDFTLTISSLQPEDFATYYCFQGSHVPVTFGQGTKVEIKR",Kd,[8],< 0.602 pM
same,koff,[8],< 1e-05 s⁻¹
same,kon,[8],1.66e+07 M⁻¹ s⁻¹
same,Kd,[9],3.92 pM
same,koff,[9],0.000137 s⁻¹
same,kon,[9],3.5e+07 M⁻¹ s⁻¹
same,Kd,[10],< 0.602 pM
same,koff,[10],< 1e-05 s⁻¹
same,kon,[10],1.66e+07 M⁻¹ s⁻¹
same,Kd,[11],3.92 pM
same,koff,[11],0.000137 s⁻¹
same,kon,[11],3.5e+07 M⁻¹ s⁻¹
"31S34I54I59D / 54R101V (antibody, V domains shown, KCD119 TAF variant) VH: EVQLVESGGGLVQPGGSLRLSCAASGYTFTSYYINWVRQAPGKGLEWIGDINPITGDTDYNADFKRRFTFSLDTSKSTAYLQMNSLRAEDTAVYYCTREGPSFAYWGQGTLVTVSS VL: DIQLTQSPSSLSASVGDRVTITCRSSQTIVHSNGDTYLEWYQQKPGKAPNLLIRKVSNRFSGVPSRFSGSGSGTDFTLTISSLQPEDFATYYCFQGSHVPVTFGQGTKVEIKR",Kd,[12],5.96 pM
same,koff,[12],7.84e-05 s⁻¹
same,kon,[12],1.32e+07 M⁻¹ s⁻¹
same,Kd,[13],9.61 pM
same,koff,[13],0.000237 s⁻¹
same,kon,[13],2.46e+07 M⁻¹ s⁻¹
same,Kd,[8],7.6 pM and 5.96 pM
same,koff,[8],0.000106 s⁻¹ and 7.84e-05 s⁻¹
same,kon,[8],1.39e+07 M⁻¹ s⁻¹ and 1.32e+07 M⁻¹ s⁻¹
same,Kd,[9],5.83 pM and 9.61 pM
same,koff,[9],0.000157 s⁻¹ and 0.000237 s⁻¹
same,kon,[9],2.69e+07 M⁻¹ s⁻¹ and 2.46e+07 M⁻¹ s⁻¹
"31S34I54I59D84S / 54G101V (antibody, V domains shown, KCD119 TAF variant; full antibody captured on protein A; also called 31S34I54I59D845 / 54G101V; 3I534I54I59D84S / 54G101V) VH: EVQLVESGGGLVQPGGSLRLSCAASGYTFTSYYINWVRQAPGKGLEWIGDINPITGDTDYNADFKRRFTFSLDTSKSTAYLQMSSLRAEDTAVYYCTREGPSFAYWGQGTLVTVSS VL: DIQLTQSPSSLSASVGDRVTITCRSSQTIVHSNGDTYLEWYQQKPGKAPNLLIGKVSNRFSGVPSRFSGSGSGTDFTLTISSLQPEDFATYYCFQGSHVPVTFGQGTKVEIK",kon,[8],4.42e+06 M⁻¹ s⁻¹
same,Kd,[9],6.11 pM
same,koff,[9],7.36e-05 s⁻¹
same,kon,[9],1.21e+07 M⁻¹ s⁻¹
same,kon,[10],4.42e+06 M⁻¹ s⁻¹
same,Kd,[11],6.11 pM
same,koff,[11],7.36e-05 s⁻¹
same,kon,[11],1.21e+07 M⁻¹ s⁻¹
"54I59D / 54R101V (antibody, V domains shown, KCD119 TAF variant) VH: EVQLVESGGGLVQPGGSLRLSCAASGYTFTDYYMNWVRQAPGKGLEWIGDINPITGDTDYNADFKRRFTFSLDTSKSTAYLQMNSLRAEDTAVYYCTREGPSFAYWGQGTLVTVSS VL: DIQLTQSPSSLSASVGDRVTITCRSSQTIVHSNGDTYLEWYQQKPGKAPNLLIRKVSNRFSGVPSRFSGSGSGTDFTLTISSLQPEDFATYYCFQGSHVPVTFGQGTKVEIKR",Kd,[12],5.72 pM
same,koff,[12],9.8e-05 s⁻¹
same,kon,[12],1.71e+07 M⁻¹ s⁻¹
same,Kd,[13],6.63 pM
same,koff,[13],0.000205 s⁻¹
same,kon,[13],3.09e+07 M⁻¹ s⁻¹
same,Kd,[8],6.42 pM and 2.94 pM and 5.72 pM and 5.23 pM
same,koff,[8],7.04e-05 s⁻¹ and 5.95e-05 s⁻¹ and 9.8e-05 s⁻¹ and 9.5e-05 s⁻¹
same,kon,[8],1.1e+07 M⁻¹ s⁻¹ and 2.02e+07 M⁻¹ s⁻¹ and 1.71e+07 M⁻¹ s⁻¹ and 1.82e+07 M⁻¹ s⁻¹
same,Kd,[9],7.1 pM and 5.43 pM and 6.63 pM and 7.92 pM
same,koff,[9],0.000187 s⁻¹ and 0.000257 s⁻¹ and 0.000205 s⁻¹ and 0.0003 s⁻¹
same,kon,[9],2.64e+07 M⁻¹ s⁻¹ and 4.74e+07 M⁻¹ s⁻¹ and 3.09e+07 M⁻¹ s⁻¹ and 3.78e+07 M⁻¹ s⁻¹
"34I54I59D / 54R101V (antibody, V domains shown, KCD119 TAF variant) VH: EVQLVESGGGLVQPGGSLRLSCAASGYTFTDYYINWVRQAPGKGLEWIGDINPITGDTDYNADFKRRFTFSLDTSKSTAYLQMNSLRAEDTAVYYCTREGPSFAYWGQGTLVTVSS VL: DIQLTQSPSSLSASVGDRVTITCRSSQTIVHSNGDTYLEWYQQKPGKAPNLLIRKVSNRFSGVPSRFSGSGSGTDFTLTISSLQPEDFATYYCFQGSHVPVTFGQGTKVEIKR",Kd,[12],5.62 pM
same,koff,[12],0.000101 s⁻¹
same,kon,[12],1.8e+07 M⁻¹ s⁻¹
same,Kd,[13],8.08 pM
same,koff,[13],0.000264 s⁻¹
same,kon,[13],3.27e+07 M⁻¹ s⁻¹
same,Kd,[8],5.62 pM
same,koff,[8],0.000101 s⁻¹
same,kon,[8],1.8e+07 M⁻¹ s⁻¹
same,Kd,[9],8.08 pM
same,koff,[9],0.000264 s⁻¹
same,kon,[9],3.27e+07 M⁻¹ s⁻¹
